Test results published in patent publication US20160194399A1.

Key:
[1] = target: SP34-binding peptide 15253; experiment: flow cytometry on peptide-displaying E. coli, 1 nM SP34-dylight-488 with 100 nM free human CD3ε as competitor, normalised to peptide expression (yPet-Mona)
[2] = target: SP34-binding peptide 15253; experiment: flow cytometry on peptide-displaying E. coli, 100 nM SP34-dylight-488 with 100 nM isotype control, normalised to peptide expression (yPet-Mona)
[3] = target: SP34-binding peptide 15253; experiment: flow cytometry on peptide-displaying E. coli, 10 nM SP34-dylight-488 with 100 nM isotype control, normalised to peptide expression (yPet-Mona)
[4] = target: SP34-binding peptide 15253; experiment: flow cytometry on peptide-displaying E. coli, 0.1 nM SP34-dylight-488 with 100 nM isotype control, normalised to peptide expression (yPet-Mona)
[5] = target: SP34-binding peptide 15253; experiment: flow cytometry on peptide-displaying E. coli, 1 nM SP34-dylight-488 with 100 nM isotype control, normalised to peptide expression (yPet-Mona)

- expression normalized binding [1]: 0.53
- expression normalized binding [2]: 2.53
- expression normalized binding [3]: 0.98
- expression normalized binding [4]: 0.55
- expression normalized binding [5]: 0.68
B1: Anti-CD3ε antibody SP34 (antibody, V domains shown)
VH: EVQLVESGGGLVQPKGSLKLSCAASGFTFNTYAMNWVRQAPGKGLEWVARIRSKYNNYATYYADSVKDRFTISRDDSQSILYLQMNNLKTEDTAMYYCVRHGNFGNSYVSWFAYWGQGTLVTVSA
VL: QAVVTQESALTTSPGETVTLTCRSSTGAVTTSNYANWVQEKPDHLFTGLIGGTNKRAPGVPARFSGSLIGDKAALTITGAQTEDEAIYFCALWYSNLWVFGGGTKLTVL
